Experimental data reported in article PMC9482650, “Quantitative fragmentomics allow affinity mapping of interactomes” (Nature Communications, 2022).

Legend:
Assay in all cases: holdup assay
Set-up in all cases: key: below the threshold = too weak to quantify, mostly under pKd 3.1 to 4
Settings in all cases: plain residues with an end cap or a label only (N-terminal biotin on a linker: ado-ado)
[1] = target: T1, DLG3_3, Q92796
T1 sequence (Q92796 374-475, limits assumed, looked up): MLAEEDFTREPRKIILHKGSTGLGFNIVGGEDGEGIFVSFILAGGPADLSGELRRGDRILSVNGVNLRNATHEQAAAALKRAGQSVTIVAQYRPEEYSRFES

[2] = target: GRIP2_5, Q9C0E4
[3] = target: T2, DFNB31_1, Q9P202
T2 sequence (Q9P202 135-233, limits assumed, looked up): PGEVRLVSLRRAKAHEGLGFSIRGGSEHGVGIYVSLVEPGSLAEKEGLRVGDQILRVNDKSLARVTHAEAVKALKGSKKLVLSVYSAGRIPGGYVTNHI

[4] = target: FRMPD2_3, Q68DX3
[5] = target: T3, SYNJ2BP, P57105
T3 sequence (P57105 8-110, limits assumed, looked up): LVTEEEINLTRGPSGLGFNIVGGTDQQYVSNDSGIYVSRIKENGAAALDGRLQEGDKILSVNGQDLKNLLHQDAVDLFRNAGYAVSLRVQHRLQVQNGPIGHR

[6] = target: GRIP2_6, Q9C0E4
[7] = target: TJP1_3, Q07157
[8] = target: T4, LRRC7, Q96NW7
T4 sequence (Q96NW7 1440-1537, limits assumed, looked up): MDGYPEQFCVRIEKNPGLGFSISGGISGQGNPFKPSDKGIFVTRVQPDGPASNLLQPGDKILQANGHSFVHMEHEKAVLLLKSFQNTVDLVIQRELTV

[9] = target: T5, RHPN1, Q8TCX5
T5 sequence (Q8TCX5 508-602, limits assumed, looked up): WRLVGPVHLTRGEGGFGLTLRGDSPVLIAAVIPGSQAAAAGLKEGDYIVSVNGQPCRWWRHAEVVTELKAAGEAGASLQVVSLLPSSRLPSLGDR

[10] = target: T6, MPDZ_5, O75970
T6 sequence (O75970 695-796, limits assumed, looked up): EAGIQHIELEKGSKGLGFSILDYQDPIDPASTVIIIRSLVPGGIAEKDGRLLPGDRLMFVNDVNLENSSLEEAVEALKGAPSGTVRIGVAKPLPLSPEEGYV

[11] = target: T7, DLG3_2, Q92796
T7 sequence (Q92796 221-321, limits assumed, looked up): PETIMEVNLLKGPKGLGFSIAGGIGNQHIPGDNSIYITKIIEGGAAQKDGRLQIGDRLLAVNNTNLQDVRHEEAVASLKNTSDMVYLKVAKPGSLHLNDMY

[12] = target: T8, SIPA1L2, Q9P2F8
T8 sequence (Q9P2F8 945-1036, limits assumed, looked up): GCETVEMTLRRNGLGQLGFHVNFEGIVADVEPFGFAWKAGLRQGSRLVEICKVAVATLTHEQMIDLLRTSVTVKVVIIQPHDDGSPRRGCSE

[13] = target: SNX27, Q96L92
[14] = target: T9, CARD11, Q9BXL7
T9 sequence (Q9BXL7 662-765, limits assumed, looked up): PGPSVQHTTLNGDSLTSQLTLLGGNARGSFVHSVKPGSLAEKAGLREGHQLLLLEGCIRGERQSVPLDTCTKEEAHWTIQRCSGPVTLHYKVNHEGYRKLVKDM

[15] = target: HTRA1, Q92743
[16] = target: T10, GRIP1_3, Q9Y3R0
T10 sequence (Q9Y3R0 247-346, limits assumed, looked up): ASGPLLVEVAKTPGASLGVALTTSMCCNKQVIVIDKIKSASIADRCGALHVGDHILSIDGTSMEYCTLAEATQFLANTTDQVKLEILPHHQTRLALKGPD

[17] = target: NHERF4_2, Q86UT5
[18] = target: T11, RADIL, Q96JH8
T11 sequence (Q96JH8 971-1071, limits assumed, looked up): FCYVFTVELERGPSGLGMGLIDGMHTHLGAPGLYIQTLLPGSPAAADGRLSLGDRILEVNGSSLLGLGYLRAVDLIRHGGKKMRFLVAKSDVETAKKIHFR

[19] = target: ARHGEF12, Q9NZN5-2
[20] = target: T12, ARHGEF11, O15085
T12 sequence (O15085 42-136, limits assumed, looked up): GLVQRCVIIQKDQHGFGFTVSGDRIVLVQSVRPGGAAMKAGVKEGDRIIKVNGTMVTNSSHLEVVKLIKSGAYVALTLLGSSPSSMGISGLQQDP

[21] = target: T13, MPP7, Q5T2T1
T13 sequence (Q5T2T1 134-230, limits assumed, looked up): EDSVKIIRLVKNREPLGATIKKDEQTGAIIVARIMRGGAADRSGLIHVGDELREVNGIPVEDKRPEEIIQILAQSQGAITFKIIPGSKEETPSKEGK

[22] = target: Inadl_6, Q8NI35
[23] = target: Inadl_1, Q8NI35
[24] = target: MAGI2_2, Q86UL8
Sequence of MAGI2_2, Q86UL8 (Q86UL8 410-522): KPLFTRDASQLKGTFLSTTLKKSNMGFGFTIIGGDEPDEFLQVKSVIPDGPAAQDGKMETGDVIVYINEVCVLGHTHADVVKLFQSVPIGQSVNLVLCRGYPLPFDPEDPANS

Sequence of Inadl_1, Q8NI35 (Q8NI35 113-229): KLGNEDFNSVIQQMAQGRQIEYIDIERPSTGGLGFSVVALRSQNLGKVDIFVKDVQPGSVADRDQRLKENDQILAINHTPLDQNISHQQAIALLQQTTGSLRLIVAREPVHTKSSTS
Sequence of GRIP2_6, Q9C0E4 (Q9C0E4 648-740): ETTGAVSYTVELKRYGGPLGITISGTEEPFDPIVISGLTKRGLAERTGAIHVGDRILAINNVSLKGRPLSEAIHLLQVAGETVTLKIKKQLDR
Sequence of FRMPD2_3, Q68DX3 (Q68DX3 1073-1166): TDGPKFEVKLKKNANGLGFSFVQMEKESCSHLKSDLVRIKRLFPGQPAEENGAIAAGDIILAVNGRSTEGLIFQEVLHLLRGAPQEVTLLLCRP
Sequence of ARHGEF12, Q9NZN5-2 (Q9NZN5 other isoform, or with tags, fused parts or gaps): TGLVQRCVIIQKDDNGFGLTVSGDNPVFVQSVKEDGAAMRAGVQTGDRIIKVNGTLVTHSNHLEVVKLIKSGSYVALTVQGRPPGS
Sequence of GRIP2_5, Q9C0E4 (Q9C0E4 544-642): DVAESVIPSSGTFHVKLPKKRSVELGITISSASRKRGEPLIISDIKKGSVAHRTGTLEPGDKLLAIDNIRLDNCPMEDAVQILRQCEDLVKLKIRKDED
Sequence of HTRA1, Q92743 (Q92743 360-477): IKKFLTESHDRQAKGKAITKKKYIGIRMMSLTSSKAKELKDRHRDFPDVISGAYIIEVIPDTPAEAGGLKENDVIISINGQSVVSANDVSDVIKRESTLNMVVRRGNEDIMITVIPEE
Sequence of TJP1_3, Q07157 (Q07157 416-512): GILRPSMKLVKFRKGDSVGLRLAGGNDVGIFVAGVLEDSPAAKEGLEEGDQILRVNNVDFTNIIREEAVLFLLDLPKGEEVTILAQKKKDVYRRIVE
Sequence of Inadl_6, Q8NI35 (Q8NI35 1058-1167): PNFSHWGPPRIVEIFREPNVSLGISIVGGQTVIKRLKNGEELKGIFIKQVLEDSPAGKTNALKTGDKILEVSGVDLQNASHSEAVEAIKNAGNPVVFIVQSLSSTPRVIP
Sequence of NHERF4_2, Q86UT5 (Q86UT5 220-308): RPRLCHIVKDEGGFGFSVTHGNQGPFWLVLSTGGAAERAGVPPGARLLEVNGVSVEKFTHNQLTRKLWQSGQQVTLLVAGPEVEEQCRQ

DDASLPVSDV [PLEKHA1, Q9HB21] was tested, and the pKd [1] was “below the threshold”, the pKd [2] was “below the threshold” and the pKd [3] was 3.75. The pKd [4] was “below the threshold”, the pKd [5] was 3.59 and the pKd [6] was “below the threshold”. The pKd [7] was “below the threshold”, the pKd [8] was “below the threshold” and the pKd [9] was 4.46. For the same binder, the pKd [10] was “below the threshold”, the pKd [11] was “below the threshold” and the pKd [12] was “below the threshold”. For the same binder, the pKd [13] was “below the threshold”, the pKd [14] was “below the threshold” and the pKd [15] was “below the threshold”. For the same binder, the pKd [16] was “below the threshold”, the pKd [17] was “below the threshold” and the pKd [18] was 3.59. For the same binder, the pKd [19] was 4.36, the pKd [20] was 4.22 and the pKd [21] was “below the threshold”. The pKd [22] was 3.65, the pKd [23] was “below the threshold” and the pKd [24] was “below the threshold”.

With PPGKHLVTEV [KCNA7, Q96RP8] the pKd [1] was 4.33, the pKd [2] was “below the threshold” and the pKd [3] was “below the threshold”. The pKd [4] was “below the threshold”, the pKd [5] was 4.86 and the pKd [6] was “below the threshold”. The pKd [7] was “below the threshold”, the pKd [8] was 3.96 and the pKd [9] was 4.37. The pKd [10] was “below the threshold”, the pKd [11] was 5.19 and the pKd [12] was “below the threshold”. For the same binder, the pKd [13] was 4.95, the pKd [14] was “below the threshold” and the pKd [15] was 4.84. For the same binder, the pKd [16] was “below the threshold”, the pKd [17] was “below the threshold” and the pKd [18] was 4.52. For the same binder, the pKd [19] was 5.22, the pKd [20] was 5.2 and the pKd [21] was “below the threshold”. The pKd [22] was 3.56, the pKd [23] was “below the threshold” and the pKd [24] was 4.32.

SPDRDRESIV [SCN5A, Q14524] was tested, and the pKd [1] was “below the threshold”, the pKd [2] was “below the threshold” and the pKd [3] was 3.58. The pKd [4] was 3.48, the pKd [5] was 4.47 and the pKd [6] was “below the threshold”. The pKd [7] was “below the threshold”, the pKd [8] was 3.48 and the pKd [9] was 4.89. For the same binder, the pKd [10] was “below the threshold”, the pKd [11] was 4.57 and the pKd [12] was “below the threshold”. The pKd [13] was 5.26, the pKd [14] was “below the threshold” and the pKd [15] was 4.51. The pKd [16] was “below the threshold”, the pKd [17] was “below the threshold” and the pKd [18] was 4.12. The pKd [19] was “below the threshold”, the pKd [20] was 3.51 and the pKd [21] was “below the threshold”. The pKd [22] was “below the threshold”, the pKd [23] was “below the threshold” and the pKd [24] was 4.26.
